Reference: US20160355587A1
Where a chain is given by its changes, count along the chain named. Values belong to the binder of their own block, whether it stands above or below them.

Legend:
[1] = molecular target: T1, human CD166 protein (human) (UniProt Q13740); test: ELISA; relative to parental CD166 M9 vk1/HcB
T1 sequence (looked up): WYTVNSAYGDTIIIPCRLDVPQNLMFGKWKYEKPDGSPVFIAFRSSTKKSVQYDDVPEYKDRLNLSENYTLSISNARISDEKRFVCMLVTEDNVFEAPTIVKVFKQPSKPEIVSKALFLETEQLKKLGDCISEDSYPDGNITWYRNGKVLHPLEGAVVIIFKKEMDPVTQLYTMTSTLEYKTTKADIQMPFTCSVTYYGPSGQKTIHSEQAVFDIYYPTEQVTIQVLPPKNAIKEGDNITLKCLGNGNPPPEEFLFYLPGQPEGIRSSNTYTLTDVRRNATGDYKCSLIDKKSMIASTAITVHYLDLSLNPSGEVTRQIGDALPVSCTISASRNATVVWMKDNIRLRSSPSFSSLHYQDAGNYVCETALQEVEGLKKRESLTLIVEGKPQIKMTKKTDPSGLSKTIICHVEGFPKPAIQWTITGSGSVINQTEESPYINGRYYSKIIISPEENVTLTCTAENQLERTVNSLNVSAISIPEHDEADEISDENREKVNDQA

[2] = molecular target: T1, human CD166 protein (human); test: ELISA, human CD166 protein coated; apparent Kd

B2: CD166-16522.20-2001 (antibody, part only; not given: linkers and constant regions, V domains shown, not shown: small tags and cut ends)
VH: QITLKESGPTLVKPTQTLTLTCTFSGFSLSTYGMGVGWIRQPPGKALEWLANIWWSEDKHYSPSLKSRLTITKDTSKNQVVLTMTNMDPVDTATYYCVQIDYGNDYAFTYWGQGTLVTVSS
VL, part: LEGWCLHPLCLAGAGISSGLLSGRSDNHDIVMTQSPLSLPVTPGEPASISCRSSKSLLHSNGITYLYWYLQKPGQSPQLLIYQMSNLASGVPDRFSGSGSGTDFTLKISRVEAEDVGVYYCAQNLELPYTFGQGTKLEIK
- Fold Increase in Kd [1]: 158 fold
- Kd [2]: 700 nM

B4: CD166-16522.21-2001 (antibody, part only; not given: linkers and constant regions, V domains shown, not shown: small tags and cut ends)
VH: B2 VH
VL, part: CLHPLCISSGLLSGRSDNHDIVMTQSPLSLPVTPGEPASISCRSSKSLLHSNGITYLYWYLQKPGQSPQLLIYQMSNLASGVPDRFSGSGSGTDFTLKISRVEAEDVGVYYCAQNLELPYTFGQGTKLEIK
- Fold Increase in Kd [1]: 33 fold
- Kd [2]: 145 nM

Binders with a lower Kd [2], results first:

- Fold Increase in Kd [1]: 13 fold
- Kd [2]: 57.7 nM
B1: CD166-16522.18-2001 (antibody, part only; not given: linkers and constant regions, V domains shown, not shown: small tags and cut ends)
VH: B2 VH
VL, part: B2 VL, part with L9A, A12W

- Fold Increase in Kd [1]: 11 fold
- Kd [2]: 49.2 nM
B3: CD166-16522.19-2001 (antibody, part only; not given: linkers and constant regions, V domains shown, not shown: small tags and cut ends)
VH: B2 VH
VL, part: B2 VL, part with L11A, A12W
